Assay results reported in the domain aggregation screens of Martell et al. (2025).

assay: soluble fraction after stress (log2 fold change); higher = more stays soluble; pooled small domains, quantitative proteomics; settings: stress: pH 4
Procedure, shortened: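 After pH 4 stress, pooled custom libraries of small protein domains were quantified with high-throughput quantitative proteomics. Aggregation propensity is taken from the fold change in each domain's soluble amount following the acid stress. The scale is log2, where higher values mean more stayed soluble.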

Row | Sequence | soluble fraction (log2)
1 | HMAAEGARNNSLFNSLRERALEVSSHNELEQIAFKMNETNIPPLRASEVISVVNSVWKNRISNQIIP | -0.0841
2 | HMAAFGDLLSELRRDMNMTQDELAKVLFVSPGTISNYENNIHFPDVPKLKQIAQYFGVTTDYLLG | -1
3 | HMAAINTYQVRKIYAIAGALGMKSRDGDDALHDLVFGMTGKQHISGLTSAEAYDVIAELEKKQ | -0.223
4 | HMAALKVAVLTVSDTRTQETDTSGAFLEGALREAGHEIADRQIVIDDVYQLRAIVSQWIADPEVEVILT | -1.31
5 | HMAALTADEAKQIALKHAGVAESDVQRLKVEQDRDDGRLLYEVEWDVGRTEYSYEIDANTGDILNYEKDV | -0.361
6 | HMAANKIDEDRNTELLQVIQNKFPDADAATKKSVKEIMKEHDIPNFKNADDIPTAVLEQIVKVLNQ | -0.128
7 | HMAAPLTDRETEVLTLLARGLINKQIAEELHIGLTTVITHRRNIMEKLRVRSLAELILRAVAAGYVDAGR | -0.78
8 | HMAARKDLIAGEDAEGRLDAWLAAALDGEFSRNRVKALIEQGAVAINDVAVTEPKRKIRPGDRLSIVLPEP | 0.248
9 | HMAARLMRALIPYAQGGLLAKLHEDGQVLSEEYTGEGIEVKALADEQLFGRLTVQLGEQAVSWQD | -0.205
10 | HMAASTPGTVTGSVVNVRPDPSTNNDRIGVIYQGTKVEILAQVGEWYNIQFGPVSGWVHKDYISTGA | -0.161
11 | HMAATISPEIQAEAEKAAALGVESIKNFMASLKEKNPEQHALFSDSEKRRLYAIARKADLNTTQQG | 0.0597
12 | HMAAVPQPQRSETIVYIGGRKFYVHTVQAGETLYSIARLYGVSEQTLVANNPTMADVVKADQNVRIPVPA | -0.00329
13 | HMAAYRLIPLGNSNKDFETYQEAIQYMRDKLDESSKAFEEGKQNWVYSGRVYGVPWSDGRTTFTVDLVPKV | 0.0755
14 | HMADASVTAYFKIAEDRLQGRLPDTFSEASLKARYQLTPAQLTAVLTRIAQEGWAERKPGYGWAFSSML | -1
15 | HMADEIMYPVQVNGKVRAEIFVAADQSKNKELVLEMAKSEERVQKYLEEGNLIKEIFVPGRIVNLVI | -0.269
16 | HMADEIQIGLQKAIQSLPEKQKLVFSMRYYDEIPYDEMSKILDMSVGTLKTNYHYAKQKIEDFLQNH | -0.0771
17 | HMADFIGMNATVTERIFPQGFGRISFVYEGNSISEPARSEDGKEIPTGTSVVVLEVRDKVYIVQPL | -0.0827
18 | HMADGDIIPEGQRDATLASLAGSMRARGMTEAEILAALQVTNETRVRPPMALADLERIARSIGRYEPGK | 0.0649
19 | HMADKGTITNQQEKILKALILFPEGASIEEIQKAADLGIDKRQFQRRLNTLIESGQINRTGKSRGTKYHTI | 0.356
20 | HMADLKVGFVHRAGSVLERELDDVLEALEMYRSALAIDPSHKPSLDALTRISQLADYREQAAEILEPLPR | -1.04
21 | HMADLNFHQQIRSLPPEQQEILLLRFGQELTLRQIAQVTGVPLRTVQSRLRAALKKLKSQLEKEE | -0.0215
22 | HMADLPQATALADVKGDVQMQGIQFGYDPEKIIIHDLNLHARPGSLVAIVGPTGAGKTTIINLLMRFYD | 0.124
23 | HMADLVYLRKRLQDAIAQLPEDMRTAYTLFQIARRSIREIAELTGASESLVKVRIHRAKGKLQELLEDLR | -0.55
24 | HMADPAVLIAELFRAMPEKRFSVKNLISATGAETREQKDYVREVVHSLSREGMIEQVAEGKYRLSASE | 0.241
25 | HMADQVLVMTRAVGQGDIVRNADIGLTSVAVDRAVATIPASQLDKIVGRHALVDLSPGQLLGSHSVGE | 0.107
26 | HMADRDKYIIMGQQLLRAAFEHFGKKATDKALENAANKLRISDVPELYARLGSAELQPRDVINVIFPD | -0.0521
27 | HMADRLITLSEVASLLRVSRHTVQAWISPSSPNHRPEFAIMARHAGRRTVFIEAEVTAWLDQRRG | -0.7
28 | HMADVSPEAQHKMVEAFAQFGVTKEHIEQRIQRRLDAIQPAQMVTLKRIFASLRDGMSTPAEWFE | -1.03

Row | Sequence | soluble fraction (log2)
29 | HMADYSGYLGKKGKVIAPLRPAGTALIDGERVDVVSFGDYIDKDSEIEVVKIEGSKLLVKKY | 0.128
30 | HMAEAIVMSTAAPVKSSPDPQSKDIFVLHEGTKVAVGDSLGDWREIRIADGNKGWVLVSAIEMI | -0.173
31 | HMAEDGNMTFEEYAKRWLARQVRYAPSTLESYRRMLGRVYPFIGAIPINRLRPIALENLLAELRKRT | -0.0982
32 | HMAEEFESMTEARRLELARLVDSRGFVRVTDAAEELGVSDVTIRGDLSELERRGLLTRVHGGAMPVT | -0.366
33 | HMAEKEYYYATDALNLRQGPGMEHTVKGEVVLGERVALLGLEGKWAKIQNAQGTTGYVFSAYLAPS | -0.147
34 | HMAEMLENQLKHAKSKQEANEYIAAAIGGVSDDDPDKEYLVAAYNEISKEFHHSSAYHRLPDT | ≥ 0.43
35 | HMAEMRYLDQIYEVNVPLPDLSLEDGDLLARWAVNFHQRYEELFSYRQSDQEIRLVTLRVTVLGELP | -1.67
36 | HMAENMNAALRVSSLINQIGTVNAKAKDRIESARKAYDALSEAQKAYVANLTTLETAETSLSKL | 0.146
37 | HMAENTIPSVIGKTLSDATFLLESYGYERGGVSEEYSEMPKGVVIRQSPQAGSSADPGTKVNLVVSLGEEI | -0.692
38 | HMAENTKKWDETGRRYRSYIKLEKRLSENTVESYMRDYMQFAHFILRQWDVAPHKVEPQMVERYMAWLYER | -0.806
39 | HMAEPIAAGKYTVSTSGSVLNMRVSPDADSQVLEKIPNGTIVEVTKSVLGWAYVTYNSAQGWVSSAYLV | -0.463
40 | HMAEPLMTQIVEIEYADAEGLRENLEQFLTRLDEKTLLGSVLVDRHTNSLIIQAVRSDLERMLPLIETLDR | -1.49
41 | HMAEPLYKQVKNKIIQNLTSDEWKPGSVIPSETKLAETYGVGVSTIRMAIGELVAARILIRRQGKGTFVSS | 0.238
42 | HMAEQDILQSVYPHIGGQDNVSRTISRNGTLYLMLKDASAVDLKAVKQVPGIADAALERGRLTLQLEE | -0.0819
43 | HMAEQLGNSRTANMVMLGAMIERTGVISIDSAMEALKATFGPKKEHLLPINRQAMEAGAAAARAV | -0.517
44 | HMAERVWASLLEIKNAVAIEDAKTLEDVDNSEKIAEERIAALNDDAKHPLAIAFIGKLRQDIAEKKIELA | -1.19
45 | HMAESSPYTVRPGDTLWKILAQTQNARYNDFPYLYRKFRELNPNITDLNHIVSGQKIIVPHIPG | 0.196
46 | HMAESTRSRILNAAIEMMETGGESSVRLSAIAEALGIKEPSIYHHFTNRTELVNAAYIEWYW | -0.63
47 | HMAEVDREEALRIALAHAAVARRDVRNLKIERGEENGVPVYKVEFETAFGDFDVAVSRRSGDVVDAD | -0.0548
48 | HMAEVIYGAGKTPAQMLGILRTMQAHGQKTVLITRLREEAAEEIGREIPLQYDKTAGVGIVGTLPQPDG | -0.0513
49 | HMAEVPSLIGKSLDAAKQAIIDAGFKVGSVSYDNSDSYGKGQVMWQQYEPSTKVKKGSSISIKVSKGS | -0.121
50 | HMAEVRTLLVPIELAGMRFDQVLAELLPEFSRSRLAAWIKSGDALLDGHDAKPKGVVRGGEQIEIRLA | -0.167
51 | HMAFAVWVKLVAIGPNYAQLEIEQGTQRNVRTLRPGDDAPEGVRLLSLTPTHAEVQANGIARKLALGQGMA | -0.0174
52 | HMAFDESLVRSIQELLSELGYSPGKIDGLLGAKTVAAIKAFELEINKDQLTGEPSEELLIALQLAIRSSKM | -0.968
53 | HMAFDGIVLKNITNALKELINGKINKIQQSSKDNLTLSIYNQKSYNLYIDISANNYRVNLTTHSE | 0.22
54 | HMAFDYETYQLTSREFSIIELVADGRSNREIAEALYLGEGTVRNYLSSILEKLELRDRTQLAVFFYQHL | -2.34
55 | HMAFIEIMTEGDADGRGFQYPIPTYSITRDFDWSETENNKLLFEMTAKYGTPYFSNYINSDMEPSDV | -0.913
